Measured values taken from patent US20100144645A1, “COMPOSITIONS AND METHODS FOR ENHANCING […] POTENCY OF […]-COMPOUNDS, A[…] ADVERSE SIDE EFFECTS, AND […] ABUSE” (SHIRE LLC, priority 2006, published 2010).

Assay: Oral bioavailability of oxycodone conjugates (plasma oxycodone plus oxymorphone)
Conditions: rats; for Oral (% AUC): n = 4 animals, analysis by LC-MS, OXY = 100

Compound | Oral (% AUC) | AUC % (Oral Bioavailability) (Table G)
COc1ccc2c3c1OC1C(OC(=O)[C@H](Cc4ccccc4)NC(=O)[C@H](Cc4ccc(O)cc4)NC(=O)[C@@H](N)Cc4ccc(O)cc4)=CCC4(O)[C@@H](C2)N(C)CC[C@]314 (stereo partly drawn) [Tyr-Tyr-Phe-OC] | 73 % AUC | 
COc1ccc2c3c1OC1C(OC(=O)[C@@H]4CCCN4C(=O)[C@H](Cc4ccc(O)cc4)NC(=O)[C@@H](N)Cc4ccc(O)cc4)=CCC4(O)[C@@H](C2)N(C)CC[C@]314 (stereo partly drawn) [Tyr-Tyr-Pro-OC] | 59 % AUC | 
COc1ccc2c3c1OC1C(OC(=O)[C@@H](NC(=O)[C@H](Cc4ccc(O)cc4)NC(=O)[C@@H](N)Cc4ccc(O)cc4)C(C)C)=CCC4(O)[C@@H](C2)N(C)CC[C@]314 (stereo partly drawn) [Tyr-Tyr-Val-OC] | 124 % AUC | 124%
COc1ccc2c3c1OC1C(OC(=O)[C@H](Cc4ccccc4)NC(=O)[C@@H](NC(=O)[C@@H](N)C(C)C)C(C)C)=CCC4(O)[C@@H](C2)N(C)CC[C@]314 (stereo partly drawn) [Val-Val-Phe-OC] | 120 % AUC | 
